Source: paper PMC4779226

What was measured:
[1] = target: ChrF-His6, Mn superoxide dismutase ChrF of TnOtchr from Ochrobactrum tritici 5bvl1 (Ochrobactrum tritici 5bvl1); test: cross-linking; 10 ug purified enzyme with 0.1 % glutaraldehyde in 20 mM NaCl, 10 mM KCl, 2 mM DTT, 20 mM Hepes pH 7.5; 5, 15 and 30 min at 30 °C; 12 % SDS-PAGE
[2] = target: ChrF-His6, Mn superoxide dismutase ChrF of TnOtchr from Ochrobactrum tritici 5bvl1 (Ochrobactrum tritici 5bvl1); test: SEC; Superdex 200 10/300 GL, 0.5 mL/min, 50 mM Tris-HCl, 0.15 M NaCl, pH 7.4; mass from a curve of standard proteins
[3] = target: ChrC-His6, Fe superoxide dismutase ChrC of TnOtchr from Ochrobactrum tritici 5bvl1 (Ochrobactrum tritici 5bvl1); test: cross-linking; 10 ug purified enzyme with 0.1 % glutaraldehyde in 20 mM NaCl, 10 mM KCl, 2 mM DTT, 20 mM Hepes pH 7.5; 5, 15 and 30 min at 30 °C; 12 % SDS-PAGE
[4] = target: ChrC-His6, Fe superoxide dismutase ChrC of TnOtchr from Ochrobactrum tritici 5bvl1 (Ochrobactrum tritici 5bvl1); test: SEC; Superdex 200 10/300 GL, 0.5 mL/min, 50 mM Tris-HCl, 0.15 M NaCl, pH 7.4; mass from a curve of standard proteins

## ChrF-His6, Mn superoxide dismutase ChrF of TnOtchr from Ochrobactrum tritici 5bvl1 (enzyme)
[1]
  stoichiometry N: 2
[2]
  stoichiometry N: 2

## ChrC-His6, Fe superoxide dismutase ChrC of TnOtchr from Ochrobactrum tritici 5bvl1 (enzyme)
[3]
  stoichiometry N: 4
[4]
  stoichiometry N: 4
